B1: LINE1-full (parent)
chain: UACGUAGGUGGUUUUCCCCUGAUAGUGCUAAGGGGGCCUGGAAGUUUGGACUGGGCAGAGCUCAACACAGCGUGGCAAAGUGGCUGUGGCUAGACUGCCUCUCUGGAUUCCUCGUCACUCAGCAGGGCAUCUCUGAGAGAAAUGCC

Among the data in the RNAGym collection of RNA variant scans (doi:10.7554/elife.90254) are self-cleavage values, retold here.

Variants of B1 are the subject of this data set. The experiment in a line: self-cleavage, relative activity (ratio to wild type); higher = more cleavage; in vitro, sequencing; the parent is a self-cleaving ribozyme.
Turning to UACGUAGGUGGUUUUCCCCUGAUAGUGCUAAGGGCGCCUGGAAGUUUGGACUGGGCAGAGCUCAACACAGCGUGGCAAAGUGGCUGUGGCCAGACUGCCUCUCUGGAUUCCUCGUCACUCAGCAGGGCAUCUCUGAGAGAAAUGCC, the self-cleavage turned out to be 0.81.

For the variant UACGUAGGUGGUUUUCCCCUGAUAGUGCUAAGGGCGCCUGGAAGUCUGGACUGGGCAGAGCUCAACACAGCGUGGCAAAGUGGCUGUGGCUAGACUGCCUCUCUGGAUUCCUCGUCACUCAGCAGGGCAUCUCUGAGAGAAAUGCC, the self-cleavage was 1.38.

In the case of UACGUAGGUGGUUUUCCCCUGAUAGUGCUAAGGGAGCCUGGAAGUUUGGACUGGGCAGAGCUCAACACAGCGUGGCAAAGUGGCUGUGGCUAGACUGCCUCUCUGGAUUCCUCGUCACUCAGCAGGGCAUCUCUGAGAGAAACGCC, the self-cleavage was 1.04.

UACGUAGGUGGUUUUCCCCUGAUAGUGCUAAGGGUGCCUGGAAGUUUGGACUGGGCAGAGCUCAACACAGCGUGGCAAAGUGGCUGUGGCUAGACUGCCUCUCUGGAUUCCUCGUCACUCAGCAGGGCAUCUCUGAGAGAAAUGUC: the self-cleavage was 1.21. In the case of UACGUAGGUGGUUUUCCCCUGAUAGUGCUAAGGGUGCCUGGAAGUUUGGACUGGGCAGAGCUCAACACAGCGUGGCAAAGUGGCUGUGGCUAGACUGCCUCUCUGGAUUCCUCGUCACUCAGCAGGGCAUCUCUGAGAGAGAUGCC it was 1.09. For UACGUAGGUGGUUUUCCCCUGAUAGUGCUAAGGGUGCCUGGAAGUUUGGUCUGGGCAGAGCUCAACACAGCGUGGCAAAGUGGCUGUGGCUAGACUGCCUCUCUGGAUUCCUCGUCACUCAGCAGGGCAUCUCUGAGAGAAAUGCC, the self-cleavage amounted to 0.57. For UACGUAGGUGGUUUUCCCCUGAUAGUGCUAAGGGCGCCUGGAAGUUUGGACUGGGCAGAGCUCAACACAGCGUGGCAAAGUGGCUGUGGCUAGACUGCCUCUCUGGAUUCCUCGUCACUCAGCAGGGCAUCUCUGAGAGAAAGGCC, the self-cleavage amounted to 0.86.

Take UACGUAGGUGGUUUUCCCCUGAUAGUGCUAAGGGCGCCUGGAAGUUUGGACUGGGCAGAGCUCAACACAGCGUGGCAAAGUGGCUGUGGCUAGACUGCCUCUCUGGAUUCCUCGUCACUCAGCAGGGCAUCUCUGAGAGAAAAGCC: the self-cleavage stood at 1.39. The figure for UACGUAGGUGGUUUUCCCCUGAUAGUGCUAAGGGUGCCUGGAAGUUUGGACUGGGCAGAGCUCAACACAGCGUGGCAAAGUGGCUGUGGCUAGACUGCCUCUCUGGAUUCCUCGUCACUCAGCAGGGCAUCUCUGAGAGAAAUGCC is 1.22. Consider UACGUAGGUGGUUUUCCCCUGAUAGUGCUAAGGGCGCCUGGAAGUUUGGACUGGGCAGAGCUCAACACAGCGUGGCAAAGUGGCUGUGGCUAGACUGCCUCUCUGGAUUCCUCGUCACUCAGCAGGGCAUCUCUGAGAGAAAUGCC, for which the self-cleavage was determined as 1.31.

In the case of UACGUAGGUGGUUUUCCCCUGAUAGUGCUAAGGGUGCCUGGAAGUUUGGACUGGGCAGAGCUCAACACAGCGUGGCAAAGUGGCUGUGGCUAGACUGCCUCUCUGGAUUCCUCGUCACUCAGCGGGGCAUCUCUGAGAGAAAUGCC, the self-cleavage amounted to 0.68. In the case of UACGUAGGUGGUUUUCCCCUGAUAGUGCUAAGGGCGCCUGGAAGUUUGGACUGGGCAGAGCUCAACACAGCGUGGCAAAGUGGCUGUGGCUAGACUGCCUCUCUGGAUUCCUCGUCACUCAGCAGGGCAUCUCUGAGAGAGAUGCC it was 0.61; in that of UACGUAGGUGGUUUUCCCCUGAUAGUGCUAAGGGUGCCUGGAAGUUUGGACUGGGCAGAGCUCAACACAGCGUGGCAAAGUGGCUGUGGCUAGACUGCCUCUCUGGAUUCCUCGUCACUCAGCAGGGCACCUCUGAGAGAAAUGCC, 1.74; in that of UACGUAGGUGGUUUUCCCCUGAUAGUGCUAAGGGUGCCUGGAAGUUUGGACUGGUCAGAGCUCAACACAGCGUGGCAAAGUGGCUGUGGCUAGACUGCCUCUCUGGAUUCCUCGUCACUCAGCAGGGCAUCUCUGAGAGAAAUGCC, 0.72. In the case of UACGUAGGUGGUUUUCCCCUGAUAGUGCUAAGGGUGCCUGGAAGUUUGGACUGGGCAGAGCUCAACACAGCGUGGCAAAGUGGCUGUGGCUAGACUGCCUCUCUGGAUUCCUCGUCUCUCAGCAGGGCAUCUCUGAGAGAAAUGCC it was 1.04; in that of UACGUAGGUGGUUUUCCCCUGAUAGUGCUAAGGGUGCCUGGAUGUUUGGACUGGGCAGAGCUCAACACAGCGUGGCAAAGUGGCUGUGGCUAGACUGCCUCUCUGGAUUCCUCGUCACUCAGCAGGGCAUCUCUGAGAGAAAUGCC, 1.33; in that of UACGUAGGUGGUUUUCCCCUGAUAGUGCUAAGGGCGCCUGGAAGUUUGGACUGGGCAGAGCUCAACACAGCGUGGCAAAGUGGCUGUGGCUAGGCUGCCUCUCUGGAUUCCUCGUCACUCAGCAGGGCAUCUCUGAGAGAAAUGCC, 0.14. The figure for UACGUAGGUGGUUUUCCCCUGAUAGUGCUAAGGGUGCCUGGAAGUUUGGACUGGGCAGAGCUCAACACAGCGUGGCAAAGAGGCUGUGGCUAGACUGCCUCUCUGGAUUCCUCGUCACUCAGCAGGGCAUCUCUGAGAGAAAUGCC is 1.82; for UACGUAGGUGGUUUUCCCCUGAUAGUGCUAAGGGCGCCUGGAAGUUUGGACUGGGCAGAGCUCAACACAGCGUGGCAAAGUGGCUGUGGCUAGACUGCCUCUCUGGAUUCCUAGUCACUCAGCAGGGCAUCUCUGAGAGAAAUGCC it is 1.68.

UACGUAGGUGGUUUUCCCCUGAUAGUGCUAAGGGUGCCUGGAAGUUUGGACUGGGCAGAGCUCAACACGGCGUGGCAAAGUGGCUGUGGCUAGACUGCCUCUCUGGAUUCCUCGUCACUCAGCAGGGCAUCUCUGAGAGAAAUGCC: the self-cleavage was 0.6. As for UACGUAGGUGGUUUUCCCCUGAUAGUGCUAAGGGUGCCUGGAAGUUUGGACUGGGCAGAGCUCAACACAGCGUGGCAAAGUGGCUGUGGCUAGACUGCCUCCCUGGAUUCCUCGUCACUCAGCAGGGCAUCUCUGAGAGAAAUGCC, the self-cleavage was found to be 1.73. In the case of UACGUAGGUGGUUUUCCCCUGAUAGUGCUAAGGGUGCCUGGAAGUUUGGACUGGGCAGAGCUCAACACAGCGUGGCAAAGUGGCUGUGGCUAGACUGCCUCACUGGAUUCCUCGUCACUCAGCAGGGCAUCUCUGAGAGAAAUGCC it was 1.8; in that of UACGUAGGUGGUUUUCCCCUGAUAGUGCUAAGGGCGCCUGGAAGUUUGGACUGGGCAGAGCUCAGCACAGCGUGGCAAAGUGGCUGUGGCUAGACUGCCUCUCUGGAUUCCUCGUCACUCAGCAGGGCAUCUCUGAGAGAAAUGCC, 0.04. In the case of UACGUAGGUGGUUUUCCCCUGAUAGUGCUAAGGGUGCCUGGAAGUUUGGACUGGGCAGAGCUCAACACAGCGUGGCAAAGUGGCUGUGGCUAGACUGCCUCUCUGGAUUCCUCGUCACUCAGCAGGGCAUCUCUGAGAGAAGUGCC it was 1.56; in that of UACGUAGGUGGUUUUCCCCUGAUAGUGCUAAGGGUGCCUGGAAGUUUGGACUGGGCAGAGCUCAACACAGCGUGGCAAAGUGGCUGUGGCUAGACUGCCUCUCUGGAUUCCUCGUCACUCAGCAGGGCAUCUCUGAGGGAAAUGCC, 1.47; in that of UACGUAGGUGGUUUUCCCCUGAUAGUGCUAAGGGUGCCUGGAAGUUUGGACUGGGCAGAGCUCAACACAGCGUGGCUAAGUGGCUGUGGCUAGACUGCCUCUCUGGAUUCCUCGUCACUCAGCAGGGCAUCUCUGAGAGAAAUGCC, 1.31.

For the variant UACGUAGGUGGUUUUCCCCUGAUAGUGCUAAGGGUGCCUGGAAGUUUGGACUGGGCAGAGCUCAACACAGCGUGGCAAAGUGGCUGUGGCUAGACUGCCACUCUGGAUUCCUCGUCACUCAGCAGGGCAUCUCUGAGAGAAAUGCC, the self-cleavage is 0.78. In the case of UACGUAGGUGGUUUUCCCCUGAUAGUGCUAAGGGUGCCUGGAAGUUUGGACUGGGCAGAGCUCAACACAGCGUGGCAAAGUGGCUGUGGCCAGACUGCCUCUCUGGAUUCCUCGUCACUCAGCAGGGCAUCUCUGAGAGAAAUGCC it was 0.52. In the case of UACGUAGGUGGUUUUCCCCUGAUAGUGCUAAGGGUGCCUGGAAGUUUGGACUGGGCAGAGCUCAACACAGCGUGGCAAAGUGGCUGUGGCUAGACUGCCUCUCUGGAUUCCUCGUCACUCAGCAGGGCGUCUCUGAGAGAAAUGCC it was 1.57; in that of UACGUAGGUGGUUUUCCCCUGAUAGUGCUAAGGGUGCCUGGAAGUUUGGACUGGGCAGAGCUCAACACAGCGUGGCAAGGUGGCUGUGGCUAGACUGCCUCUCUGGAUUCCUCGUCACUCAGCAGGGCAUCUCUGAGAGAAAUGCC, 1.22. The figure for UACGUAGGUGGUUUUCCCCUGAUAGUGCUAAGGGUGCCUGGAAGUUUGGACUGGGCAGAGCUCAUCACAGCGUGGCAAAGUGGCUGUGGCUAGACUGCCUCUCUGGAUUCCUCGUCACUCAGCAGGGCAUCUCUGAGAGAAAUGCC is 0.12; for UACGUAGGUGGUUUUCCCCUGAUAGUGCUAAGGGUGCCUGGAAGUAUGGACUGGGCAGAGCUCAACACAGCGUGGCAAAGUGGCUGUGGCUAGACUGCCUCUCUGGAUUCCUCGUCACUCAGCAGGGCAUCUCUGAGAGAAAUGCC it is 1.07. UACGUAGGUGGUUUUCCCCUGAUAGUGCUAAGGGUGCCUGGAAGUUUGGACUGGGCAGAGCUCAACACAGCGUGGCAAAGUGGCUGUGGCUAGACUGCCUCUCUGGAUUCCCCGUCACUCAGCAGGGCAUCUCUGAGAGAAAUGCC: the self-cleavage was found to be 0.75.

Regarding UACGUAGGUGGUUUUCCCCUGAUAGUGCUAAGGGUGCCUGGAAGUUUGGACUGGGCAGAGCUCAACACAGCGUGGCAAAGUGGCUGUGGCUAGACUGCCUCUCCGGAUUCCUCGUCACUCAGCAGGGCAUCUCUGAGAGAAAUGCC, the self-cleavage amounted to 0.8.

As for UACGUAGGUGGUUUUCCCCUGAUAGUGCUAAGGGCGCCUGGAAGUUUGGACUGGGCAGAGCCCAACACAGCGUGGCAAAGUGGCUGUGGCUAGACUGCCUCUCUGGAUUCCUCGUCACUCAGCAGGGCAUCUCUGAGAGAAAUGCC, the self-cleavage is 0.06. The figure for UACGUAGGUGGUUUUCCCCUGAUAGUGCUAAGGGUGCCUGGAAGUUUGGACUGGGCAGAGCUCAACACAGCGUAGCAAAGUGGCUGUGGCUAGACUGCCUCUCUGGAUUCCUCGUCACUCAGCAGGGCAUCUCUGAGAGAAAUGCC is 1.22; for UACGUAGGUGGUUUUCCCCUGAUAGUGCUAAGGGUGCCUAGAAGUUUGGACUGGGCAGAGCUCAACACAGCGUGGCAAAGUGGCUGUGGCUAGACUGCCUCUCUGGAUUCCUCGUCACUCAGCAGGGCAUCUCUGAGAGAAAUGCC it is 0.85; for UACGUAGGUGGUUUUCCCCUGAUAGUGCUAAGGGAGCCUGGAAGUUUGGACUGGGCAGAGCUCAACACAGCGUGGCAAAGUGGCUGUGGCUAGACUGCCUCUCUGGAUUCCUCGUCACUCAGCAGGGCAACUCUGAGAGAAAUGCC it is 1.1. The figure for UACGUAGGUGGUUUUCCCCUGAUAGUGCUAAGGGAGCCUGGAAGUUUGGACUGGGCAGAGCUCAACACAGCGUGGCAAAGUGGCUGUGGCUAGACUGCCUCUCUGGAUUCCUCGUCACCCAGCAGGGCAUCUCUGAGAGAAAUGCC is 1.3.
